From patent US7067474B1, “Agents for treating human illnesses based on β-catenin, and the production and use thereof” (Max-Delbruck-Centrum fur Molekulare Medizin, priority 1998, dated 2006)
Positions count from the first letter of the chain named. Entries after “also recorded” stand apart in the source; their conditions may differ.

T1: APC (20 amino acid repeats) (Homo sapiens, UniProt P25054)
T1 construct: for the amino acids Ser1259Asp 1400 (APC 20 amino acid repeats); expressed in transfected cells; host or cells: yeast (two-hybrid, Matchmaker, Clontech)
T1 sequence (P25054 1253-1394 limits assumed): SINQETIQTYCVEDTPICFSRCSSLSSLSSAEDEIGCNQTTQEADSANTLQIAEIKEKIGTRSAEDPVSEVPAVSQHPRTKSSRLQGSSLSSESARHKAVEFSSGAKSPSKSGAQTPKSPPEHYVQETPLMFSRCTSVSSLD

T2: APC (15 amino acid repeats) (Homo sapiens, UniProt P25054)
T2 construct: of human APC for the amino acids His1012–Glu1215 (APC 15 amino acid repeats); expressed in transfected cells; host or cells: yeast (two-hybrid, Matchmaker, Clontech)
T2 sequence (P25054 1006-1209 limits assumed): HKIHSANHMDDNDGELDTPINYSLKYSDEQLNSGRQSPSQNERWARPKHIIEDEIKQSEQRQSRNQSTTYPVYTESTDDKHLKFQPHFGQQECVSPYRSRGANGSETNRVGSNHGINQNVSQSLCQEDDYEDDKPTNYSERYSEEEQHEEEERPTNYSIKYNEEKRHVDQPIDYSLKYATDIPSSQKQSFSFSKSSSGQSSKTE

B1: Arg 469: human β-catenin mutant, Arg 469 substituted by alanine (arm 8) (protein)
chain: LHNLSHHREGLLAIFKSGGIPALVKMLGSPVDSVLFYAITTLHNLLLHQEGAKMAVRLAGGLQKMVALLNKTNVKFLAITTDCLQILAYGNQESKLIILASGGPQALVNIMRTYTYEKLLWTTSRVLKVLSVCSSNKPAIVEAGGMQALGLHLTDPSQRLVQNCLWTLRNLSDAATKQEGMEGLLGTLVQLLGSDDINVVTCAAGILSNLTCNNYKNKMMVCQVGGIEALVRTVLRAGDREDITEPAICALAHLTSRHQEAEMAQNAVRLHYGLPVVVKLLHPPSHWPLIKATVGLIRNLALCPANHAPLREQGAIPRLVQLLVRAHQDTQRRTSMGGTQQQFVEGVRMEEIVEGCTGALHILARDVHNRIVIRGLNTIPLFVQLLYSPIENIQRVAAGVLCELAQDKEAAEAIEAEGATAPLTELLHSRNEGVATYAAAVLFRMSEDKPQDYKKRLSVELTSSLFRTEPMAWNETADLGLDIGAQGEPLGYRQDDPSYRSFHSGGYGQDALGMDPMMEHEMGGHHPGADYPVDGLPDLGHAQDLMDGLPPGDSNQLAWFDTDL
modifications: left off: large carriers; small tags and cut ends
B2: Arg 342: human β-catenin mutant, Arg 342 substituted by alanine (arm 5) (protein)
chain: B1 chain with R125A, A252R
modifications: left off: large carriers; small tags and cut ends
B3: His 260: human β-catenin mutant, His 260 substituted by alanine (arm 3) (protein)
chain: B1 chain with H43A, A252R
modifications: left off: large carriers; small tags and cut ends
B4: Lys 354: human β-catenin mutant, Lys 354 substituted by alanine (arm 6) (protein)
chain: B1 chain with K137A, A252R
modifications: left off: large carriers; small tags and cut ends
B5: Arg 274: human β-catenin mutant, Arg 274 substituted by alanine (arm 4) (protein)
chain: B1 chain with R57A, A252R
modifications: left off: large carriers; small tags and cut ends
B6: Lys 345: human β-catenin mutant, Lys 345 substituted by alanine (arm 5) (protein)
chain: B1 chain with K128A, A252R
modifications: left off: large carriers; small tags and cut ends

target: T3, conductin (Mus musculus, UniProt O88566); assay: yeast 2-hybrid: interaction of β-catenin mutants with conductin; type: binding; settings: yeast 2-hybrid, alanine mutants
T3 construct: conductin for the amino acids Ala342–ARG465; expressed in transfected cells; host or cells: yeast (two-hybrid, Matchmaker, Clontech)
T3 sequence (O88566 343-465 limits assumed): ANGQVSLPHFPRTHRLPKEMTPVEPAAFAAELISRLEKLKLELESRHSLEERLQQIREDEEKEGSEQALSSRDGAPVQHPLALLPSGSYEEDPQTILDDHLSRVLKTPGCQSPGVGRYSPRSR
Procedure: (§1) The mutagenesis of β-catenin in the armadillo repeats 3–8 was carried out by means of the “mutagenesis kit” of the company Clontech according to the producer's record and the mutants were checked by sequencing (FIG. 5). In all mutants the original amino acid was substituted by alanine. For analyzing the interactions the cDNA of human β-catenin (armadillo repeat 3 up to the C-terminal end of the protein) coding for the amino acids Leu218–Leu7 μl or its mutants was cloned into the fusion vector for the activation domain of Gal-4 (pGAD424, Clontech). The cDNA for the binding domains of the interaction partners was cloned into the Lex-A fusion vector BTM 116. To this end, the cDNA of LEF-1 for the amino acids 1–99, conductin for the amino acids Ala342–ARG465; of human APC for the amino acids His1012–Glu1215 (APC 15 amino acid repeats) and for the amino acids Ser1259Asp 1400 (APC 20 amino acid repeats) and E-cadherin for the amino acids Gin773–Asp884 (cytoplasmatic domain) were amplified with the respective primers PCR. The interaction of the Lex-A hybrids with β-catenin and its mutants was quantified by means of the β-galactosidase reporter activity in the yeast 2-hybrid system (report: “Matchmaker”. Clontech) (Tab. 2 and FIG. 6).

Row | Interaction With Conductin, share of wild type β-catenin interaction | Molecule
1 | 20% | B2
2 | 10% | B3
3 | 43% | B4
4 | 29% | B5
5 | 22% | B6

Row | Molecule | Interaction With Conductin, share of wild type β-catenin interaction
6 | B1 | — (Interactions marked by — correspond to 60–100% of the wild type interaction)

same assay, conditions: β-catenin mutation, in words

Row | interaction with conductin | Molecule
7 | no interaction with conductin | B5

target: T1, APC (20 amino acid repeats); assay: yeast 2-hybrid: interaction of β-catenin mutants with APC 20 amino acid repeats; type: binding; settings: yeast 2-hybrid, alanine mutants
Procedure: as §1

Row | Interaction With APC-20, share of wild type β-catenin interaction | Molecule
8 | 29% | B2
9 | 40% | B3
10 | 40% | B5
11 | 0% | B6

Row | Molecule | Interaction With APC-20, share of wild type β-catenin interaction
12 | B1 | — (Interactions marked by — correspond to 60–100% of the wild type interaction)
13 | B4 | — (Interactions marked by — correspond to 60–100% of the wild type interaction)

target: T2, APC (15 amino acid repeats); assay: yeast 2-hybrid: interaction of β-catenin mutants with APC 15 amino acid repeats; type: binding; settings: yeast 2-hybrid, alanine mutants
Procedure: as §1

Row | Molecule | Interaction With APC-15, share of wild type β-catenin interaction
14 | B1 | — (Interactions marked by — correspond to 60–100% of the wild type interaction)
15 | B2 | — (Interactions marked by — correspond to 60–100% of the wild type interaction)
16 | B4 | 54%
17 | B5 | — (Interactions marked by — correspond to 60–100% of the wild type interaction)
18 | B6 | — (Interactions marked by — correspond to 60–100% of the wild type interaction)

target: T4, LEF-1 (Mus musculus, UniProt P27782); assay: yeast 2-hybrid: interaction of β-catenin mutants with LEF-1; type: binding; settings: yeast 2-hybrid, alanine mutants
T4 construct: the cDNA of LEF-1 for the amino acids 1–99; expressed in transfected cells; host or cells: yeast (two-hybrid, Matchmaker, Clontech)
T4 sequence (P27782 1-99): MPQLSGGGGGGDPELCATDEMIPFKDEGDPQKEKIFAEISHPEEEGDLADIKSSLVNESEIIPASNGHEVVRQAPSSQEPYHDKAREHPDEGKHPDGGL
Procedure: as §1

Row | Molecule | Interaction With LEF-1, share of wild type β-catenin interaction
19 | B2 | — (Interactions marked by — correspond to 60–100% of the wild type interaction)
20 | B5 | — (Interactions marked by — correspond to 60–100% of the wild type interaction)

same assay, conditions: β-catenin mutation, in words

Row | Molecule | interaction with LEF-1/TCF-4
21 | B1 | blocking the interaction; also recorded: no interaction with LEF-1/TCF-4

target: conductin amino acids Ala342-Arg465 fused to Lex-A (vector BTM 116) (UniProt P0A7C2); assay: yeast 2-hybrid, β-galactosidase reporter; percent of wild type β-catenin; settings: not given
Sequence (P0A7C2 other isoform, or with tags, fused parts or gaps limits assumed, form in doubt): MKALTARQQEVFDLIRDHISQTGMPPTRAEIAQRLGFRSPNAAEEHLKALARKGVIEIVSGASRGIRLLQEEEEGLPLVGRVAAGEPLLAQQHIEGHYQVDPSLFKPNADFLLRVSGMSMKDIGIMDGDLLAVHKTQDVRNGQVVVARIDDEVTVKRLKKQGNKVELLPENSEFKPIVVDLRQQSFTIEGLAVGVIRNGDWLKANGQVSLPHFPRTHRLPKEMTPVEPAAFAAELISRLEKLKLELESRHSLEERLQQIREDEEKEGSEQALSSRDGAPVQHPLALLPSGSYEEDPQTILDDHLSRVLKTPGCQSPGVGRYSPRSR

Row | share of the interaction with wild type β-catenin in percent [%] | Molecule
22 | 36 | human β-catenin (Leu218-Leu781) mutant Arg 457 to alanine, Gal-4 activation domain fusion (from UniProt P35222 218-781)
23 | 42 | human β-catenin (Leu218-Leu781) mutant Lys 394 to alanine, Gal-4 activation domain fusion (from UniProt P35222 218-781)
